Data taken from patent US20220025060A1 (JIANGSU HENGRUI MEDICINE, published 2022).

Target: T1, His-tagged human CD40 (h-CD40-his) recombinant protein (human, UniProt P25942 21-193)
T1 construct: range 21-193; Commercial reagent from Acrobiosystems; also called human CD40-his; not shown: His tag
Experiment: Biacore SPR
Excerpt: According to the method described in the instruction available from Human Anti-capture Kit (Cat.# BR-1008-39, GE), human anti-capture antibody was covalently coupled to biosensing chip CM5 of the Biacore instrument (Biacore X100, GE), a certain amount of chimeric or humanized antibodies to be tested was affinity-captured, and then a series of concentration gradients of CD40 antigen (CD40 antigen purchased from Acrobiosystems) flowed through the surface of the chip. Biacore instrument (Biacore X100, GE) was used to detect the reaction signal in real-time, thus to obtain the association and dissociation curves. After each cycle of dissociation was completed, the biochip was washed and regenerated with a regeneration solution provided by the Human Anti-capture Kit. The amino coupling kit used in the test was purchased from GE (Cat. # BR-1000-50, GE), and HBS-EP+10× buffer solution (Cat. # BR-1006-69, GE) was diluted to 1×(pH 7.4) with double distilled water.
The data obtained from the test was fitted against a (1:1) Binding model using BiacoreX100 evaluation software2.0 GE, and the affinity value was obtained, as shown in Table 10 and Table 11.

T1 sequence (P25942 21-193 limits assumed): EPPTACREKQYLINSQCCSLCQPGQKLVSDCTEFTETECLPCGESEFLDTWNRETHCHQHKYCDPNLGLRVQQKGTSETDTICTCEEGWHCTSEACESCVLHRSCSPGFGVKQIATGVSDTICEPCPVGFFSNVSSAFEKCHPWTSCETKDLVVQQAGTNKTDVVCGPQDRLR

fold affinity against the Alligator control: ≥ 10 times
fold affinity against the Pfizer Control: ≥ 4 times
B1: humanized antibody hu9E5 (H1c heavy chain, L1a light chain) (antibody, human IgG1, kappa, V domains shown)
VH: QVQLVQSGAEVKKPGASVKVSCKASGYILTTYWITWVRQAPGQGLEWMGDIHPGSGSTKYNEKFKSRVTLTVDTSISTAYMELSRLRSEDTAVYYCARRDYWGQGTTVTVSS
VL: DIVMTQSPLSLPVTPGEPASISCRSSQNIVNSQGNTYLEWYLQKPGQSPQLLIYKVTNRFSGVPDRFSGSGSGTDFTLKISRVEAEDVGVYYCFQASLVPWTFGGGTKVEIKR
notes: also called Hu9E5-25
